# Results reported in PMC3280358 (Molecular Cell, 2012).
# T1: recombinant full-length FLAG-Nbs1 (human, UniProt O60934 1-754)
# T1 construct: Nbs1 (Nijmegen breakage syndrome gene product), human, full length; also called recombinant full-length Nbs1; source: recombinant, a gift from Tanya Paull
# T1 sequence (looked up): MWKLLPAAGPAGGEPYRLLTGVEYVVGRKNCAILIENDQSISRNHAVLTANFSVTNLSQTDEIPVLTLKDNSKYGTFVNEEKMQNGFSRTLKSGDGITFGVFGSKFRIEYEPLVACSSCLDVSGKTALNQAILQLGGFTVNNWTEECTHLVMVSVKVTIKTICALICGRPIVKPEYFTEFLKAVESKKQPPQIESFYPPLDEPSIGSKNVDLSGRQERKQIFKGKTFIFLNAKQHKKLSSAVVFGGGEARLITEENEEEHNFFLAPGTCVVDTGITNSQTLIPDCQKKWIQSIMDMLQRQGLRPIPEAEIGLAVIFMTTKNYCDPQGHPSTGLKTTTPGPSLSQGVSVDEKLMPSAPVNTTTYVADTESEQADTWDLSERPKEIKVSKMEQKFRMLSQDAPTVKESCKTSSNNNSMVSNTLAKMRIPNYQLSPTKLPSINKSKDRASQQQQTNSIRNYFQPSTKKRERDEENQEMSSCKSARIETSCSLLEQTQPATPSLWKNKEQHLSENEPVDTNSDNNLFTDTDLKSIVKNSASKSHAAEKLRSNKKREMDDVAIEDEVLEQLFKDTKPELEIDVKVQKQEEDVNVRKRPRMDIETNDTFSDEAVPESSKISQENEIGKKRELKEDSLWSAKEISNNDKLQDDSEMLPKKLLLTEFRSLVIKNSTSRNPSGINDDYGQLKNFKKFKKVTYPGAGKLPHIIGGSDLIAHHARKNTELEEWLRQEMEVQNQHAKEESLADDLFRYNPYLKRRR
# Biological target: T1, recombinant full-length FLAG-Nbs1
# Assay: far-Western, overlay or dot blot; Rad51 NTD kinase reaction (250 μM ATP) resolved by SDS-PAGE, transferred to nitrocellulose, incubated with recombinant full-length FLAG-Nbs1 (∼ 2 μg), detected with anti-Nbs1 antibody
# Details: both partners purified
row,binding result,Binder
1,binds,"Rad51 NTD with S14D substitution (domain or fragment, human, UniProt Q06609 1-86, looked up, also called NTD S14D; source: recombinant) MAMQMQLEANADTDVEEESFGPQPISRLEQCGINANDVKKLEEAGFHTVEAVAYAPKKELINIKGISEAKADKILAEAAKLVPMGF"
2,binds,"Rad51 NTD with S14E substitution (domain or fragment, human, UniProt Q06609 1-86, looked up, also called NTD S14E; source: recombinant) MAMQMQLEANADTEVEEESFGPQPISRLEQCGINANDVKKLEEAGFHTVEAVAYAPKKELINIKGISEAKADKILAEAAKLVPMGF"
